From patent US9393271B2, “GHRH agonists for islet cell transplantation and function and the treatment of diabetes” (UNIVERSITY OF MIAMI, priority 2012, dated 2016) come the findings set out here.

The target in this assay is T1, GHRH receptor in human pituitary membrane homogenates (human, UniProt Q02643).
T1 sequence: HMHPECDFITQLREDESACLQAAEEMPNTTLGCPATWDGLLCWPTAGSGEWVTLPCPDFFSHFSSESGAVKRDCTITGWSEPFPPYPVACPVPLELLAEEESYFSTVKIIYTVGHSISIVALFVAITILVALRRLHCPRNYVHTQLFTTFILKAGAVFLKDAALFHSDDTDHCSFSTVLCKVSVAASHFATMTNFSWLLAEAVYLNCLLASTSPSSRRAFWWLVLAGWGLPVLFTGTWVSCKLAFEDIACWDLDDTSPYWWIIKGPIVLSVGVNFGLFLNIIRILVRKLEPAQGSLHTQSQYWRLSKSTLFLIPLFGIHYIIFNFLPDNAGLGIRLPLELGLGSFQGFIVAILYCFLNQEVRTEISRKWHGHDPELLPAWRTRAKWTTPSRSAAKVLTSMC
In words: ligand competition, 125I-JV-1-42 displaced, human pituitary membranes.

Non-standard residues stand in square brackets, D forms with d. No end group written: not given here. *: point of attachment. Phe(F5) = N[C@@H](Cc1c(F)c(F)c(F)c(F)c1F)C(=O)O; Desaminotyrosyl = O=C(CCc1ccc(O)cc1)*; NMeY = CN[C@@H](Cc1ccc(O)cc1)C(=O)O; Agmatine = N=C(N)NCCCCN*; NMeA = CN[C@@H](C)C(=O)O; Nle = CCCC[C@H](N)C(=O)O; Orn = NCCC[C@H](N)C(=O)O; Abu = CC[C@H](N)C(=O)O; Aoc = NCCCCCCCC(=O)O; Ava = NCCCCC(=O)O; GABA = NCCCC(=O)O

For [NMeY]ADAIFTQSYR[Orn]VL[Abu]QLSAR[Orn]LLQDI[Nle]SRQ-{GABA-NH2} [[N-Me-Tyr1, Gln8, Orn12, Abu15, Orn21, Nle27, Gln-Gab30]hGHRH(1-30)NH2], the IC50 was found to be 1.22 nM and the “relative affinity (binding potency) vs JI-38” value (“relative affinity” for short) was found to be 3.57 JI-38 = 1.

B1: [Dat1, Gln8, Orn12, Abu15, Orn21, Nle27, Asp28, Apa30]hGHRH(1-30)NH2 (peptide)
peptide: [Desaminotyrosyl]ADAIFTQSYR[Orn]VL[Abu]QLSAR[Orn]LLQDI[Nle]DR[Ava]-NH2
SMILES: CCCC[C@H](NC(=O)[C@@H](NC(=O)[C@H](CC(=O)O)NC(=O)[C@H](CCC(N)=O)NC(=O)[C@H](CC(C)C)NC(=O)[C@H](CC(C)C)NC(=O)[C@H](CCCN)NC(=O)[C@H](CCCNC(=N)N)NC(=O)[C@H](C)NC(=O)[C@H](CO)NC(=O)[C@H](CC(C)C)NC(=O)[C@H](CCC(N)=O)NC(=O)[C@H](CC)NC(=O)[C@H](CC(C)C)NC(=O)[C@@H](NC(=O)[C@H](CCCN)NC(=O)[C@H](CCCNC(=N)N)NC(=O)[C@H](Cc1ccc(O)cc1)NC(=O)[C@H](CO)NC(=O)[C@H](CCC(N)=O)NC(=O)[C@@H](NC(=O)[C@H](Cc1ccccc1)NC(=O)[C@@H](NC(=O)[C@H](C)NC(=O)[C@H](CC(=O)O)NC(=O)[C@H](C)NC(=O)CCc1ccc(O)cc1)[C@@H](C)CC)[C@@H](C)O)C(C)C)[C@@H](C)CC)C(=O)N[C@@H](CC(=O)O)C(=O)N[C@@H](CCCNC(=N)N)C(=O)NCCCCC(N)=O
For B1, the IC50 is 1.99 nM and the “relative affinity” value came to 2.18 JI-38 = 1.
Consider [NMeY][dA]DAI[Phe(F5)]TNSYR[Orn]VL[Abu]QLSAR[Orn]LLQDI[Nle]DR-NHMe [[N-Me-Tyr1, D-Ala2, Fpa5-6, Orn12, Abu15, Orn21, Nle27, Asp28]hGHRH(1-29)NH-CH3], for which the half-inhibitory concentration (IC50) came to 0.87 nM and the “relative affinity” value was found to be 5 JI-38 = 1.
For [NMeY]ADAIFTNSYR[Orn]VL[Abu]QLSAR[Orn]LLQDI[Nle]SR[GABA]-NHMe [[N-Me-Tyr1, Orn12, Abu15, Orn21, Nle27, Gab30]hGHRH(1-30)NH-CH3], in that order: 3.02 nM and 1.44 JI-38 = 1.
In the case of [Desaminotyrosyl]ADAIFTQSYH[Orn]VL[Abu]QLSAH[Orn]LLQDI[Nle]DR-NHMe (not fully specified) [[Dat1, Gln8, His11, Orn12, Abu15, His20, Orn21, Nle27, Asp28]hGHRH(1-29)NH-CH3], the IC50 came out at 2.45 nM and the “relative affinity” value worked out at 1.78 JI-38 = 1.

B2: [Ac-N-Me-Tyr1, D-Ala2, Gln8, Orn12, Abu15, Orn21, Nle27, Asp28, Agm29]hGHRH(1-29) (peptide)
peptide: Ac-[NMeY][dA]DAIFTQSYR[Orn]VL[Abu]QLSAR[Orn]LLQDI[Nle]D[Agmatine]
SMILES: CCCC[C@H](NC(=O)[C@@H](NC(=O)[C@H](CC(=O)O)NC(=O)[C@H](CCC(N)=O)NC(=O)[C@H](CC(C)C)NC(=O)[C@H](CC(C)C)NC(=O)[C@H](CCCN)NC(=O)[C@H](CCCNC(=N)N)NC(=O)[C@H](C)NC(=O)[C@H](CO)NC(=O)[C@H](CC(C)C)NC(=O)[C@H](CCC(N)=O)NC(=O)[C@H](CC)NC(=O)[C@H](CC(C)C)NC(=O)[C@@H](NC(=O)[C@H](CCCN)NC(=O)[C@H](CCCNC(=N)N)NC(=O)[C@H](Cc1ccc(O)cc1)NC(=O)[C@H](CO)NC(=O)[C@H](CCC(N)=O)NC(=O)[C@@H](NC(=O)[C@H](Cc1ccccc1)NC(=O)[C@@H](NC(=O)[C@H](C)NC(=O)[C@H](CC(=O)O)NC(=O)[C@@H](C)NC(=O)[C@H](Cc1ccc(O)cc1)N(C)C(C)=O)[C@@H](C)CC)[C@@H](C)O)C(C)C)[C@@H](C)CC)C(=O)N[C@@H](CC(=O)O)C(=O)NCCCCNC(=N)N
With B2, the IC50 came to 3.44 nM and the “relative affinity” value was 1.26 JI-38 = 1.
For [Desaminotyrosyl]ADAIFTQSYR[Orn]VL[Abu]QLSAR[Orn]LLQDI[Nle]DR-NHMe (not fully specified) [[Dat1, Gln8, Orn12, Abu15, Orn21, Nle27, Asp28]hGHRH(1-29)NH-CH3], the IC50 is 3 nM and the “relative affinity” value is 1.45 JI-38 = 1.
For [NMeY][dA]DAIFTQSYR[Orn]VL[Abu]QLSAR[Orn]LLQDI[Nle]D[Agmatine] [[N-Me-Tyr1, D-Ala2, Gln8, Orn12, Abu15, Orn21, Nle27, Asp28, Agm29]hGHRH(1-29)], in that order: 0.82 nM and 5.3 JI-38 = 1.

B3: [Dat1, D-Ala2, N-Me-Ala8, Orn12, Abu15, Orn21, Nle27, Asp28, Agm29]hGHRH(1-29) (peptide)
peptide: [Desaminotyrosyl][dA]DAIFT[NMeA]SYR[Orn]VL[Abu]QLSAR[Orn]LLQDI[Nle]D[Agmatine]
SMILES: CCCC[C@H](NC(=O)[C@@H](NC(=O)[C@H](CC(=O)O)NC(=O)[C@H](CCC(N)=O)NC(=O)[C@H](CC(C)C)NC(=O)[C@H](CC(C)C)NC(=O)[C@H](CCCN)NC(=O)[C@H](CCCNC(=N)N)NC(=O)[C@H](C)NC(=O)[C@H](CO)NC(=O)[C@H](CC(C)C)NC(=O)[C@H](CCC(N)=O)NC(=O)[C@H](CC)NC(=O)[C@H](CC(C)C)NC(=O)[C@@H](NC(=O)[C@H](CCCN)NC(=O)[C@H](CCCNC(=N)N)NC(=O)[C@H](Cc1ccc(O)cc1)NC(=O)[C@H](CO)NC(=O)[C@H](C)N(C)C(=O)[C@@H](NC(=O)[C@H](Cc1ccccc1)NC(=O)[C@@H](NC(=O)[C@H](C)NC(=O)[C@H](CC(=O)O)NC(=O)[C@@H](C)NC(=O)CCc1ccc(O)cc1)[C@@H](C)CC)[C@@H](C)O)C(C)C)[C@@H](C)CC)C(=O)N[C@@H](CC(=O)O)C(=O)NCCCCNC(=N)N
Regarding B3, the IC50 was determined as 0.86 nM and the “relative affinity” value turned out to be 5.06 JI-38 = 1.
With [NMeY][dA]DAIFTNSYR[Orn]VL[Abu]QLSAR[Orn]LLQDI[Nle]D[Agmatine] [[N-Me-Tyr1, D-Ala2, Orn12, Abu15, Orn21, Nle27, Asp28, Agm29]hGHRH(1-29)], the IC50 worked out at 1.7 nM and the “relative affinity” value was determined as 2.56 JI-38 = 1.
Taken in the same sequence, the figures for [NMeY]ADAIFTQSYR[Orn]VL[Abu]QLSAR[Orn]LLQDI[Nle]DR[Ava]-NH2 [[N-Me-Tyr1, Gln8, Orn12, Abu15, Orn21, Nle27, Asp28, Apa30]hGHRH(1-30)NH2] were 3.8 nM and 1.14 JI-38 = 1.
Taken in the same sequence, the figures for [NMeY]ADAIFTQSYR[Orn]VL[Abu]QLSAR[Orn]LLQDI[Nle]DR-NHMe (not fully specified) [[N-Me-Tyr1, Gln8, Orn12, Abu15, Orn21, Nle27, Asp28]hGHRH(1-29)NH-CH3] were 0.3 nM and 14.5 JI-38 = 1.

B4: [N-Me-Tyr1, Orn12, Abu15, Orn21, Nle27, Asp28, Amc30]hGHRH(1-30)NH2 (peptide)
peptide: [NMeY]ADAIFTNSYR[Orn]VL[Abu]QLSAR[Orn]LLQDI[Nle]DR[Aoc]-NH2
modifications: N-terminus assumed
SMILES: CCCC[C@H](NC(=O)[C@@H](NC(=O)[C@H](CC(=O)O)NC(=O)[C@H](CCC(N)=O)NC(=O)[C@H](CC(C)C)NC(=O)[C@H](CC(C)C)NC(=O)[C@H](CCCN)NC(=O)[C@H](CCCNC(=N)N)NC(=O)[C@H](C)NC(=O)[C@H](CO)NC(=O)[C@H](CC(C)C)NC(=O)[C@H](CCC(N)=O)NC(=O)[C@H](CC)NC(=O)[C@H](CC(C)C)NC(=O)[C@@H](NC(=O)[C@H](CCCN)NC(=O)[C@H](CCCNC(=N)N)NC(=O)[C@H](Cc1ccc(O)cc1)NC(=O)[C@H](CO)NC(=O)[C@H](CC(N)=O)NC(=O)[C@@H](NC(=O)[C@H](Cc1ccccc1)NC(=O)[C@@H](NC(=O)[C@H](C)NC(=O)[C@H](CC(=O)O)NC(=O)[C@H](C)NC(=O)[C@H](Cc1ccc(O)cc1)NC)[C@@H](C)CC)[C@@H](C)O)C(C)C)[C@@H](C)CC)C(=O)N[C@@H](CC(=O)O)C(=O)N[C@@H](CCCNC(=N)N)C(=O)NCCCCCCCC(N)=O
Consider B4, for which the IC50 was 2.99 nM and the “relative affinity” value was 1.45 JI-38 = 1.
For [NMeY][dA]DAI[Phe(F5)]TNSYR[Orn]VL[Abu]QLSAR[Orn]LLQDI[Nle]D[Agmatine] [[N-Me-Tyr1, D-Ala2, Fpa5-6, Orn12, Abu15, Orn21, Nle27, Asp28, Agm29]hGHRH(1-29)], the IC50 amounted to 3.05 nM and the “relative affinity” value was 1.43 JI-38 = 1.

B5: [N-Me-Tyr1, Abu2, Orn12, Abu15, Orn21, Nle27, Gab30]hGHRH(1-30)NH2 (peptide)
peptide: [NMeY][Abu]DAIFTNSYR[Orn]VL[Abu]QLSAR[Orn]LLQDI[Nle]SR[GABA]-NH2
modifications: N-terminus assumed
SMILES: CCCC[C@H](NC(=O)[C@@H](NC(=O)[C@H](CC(=O)O)NC(=O)[C@H](CCC(N)=O)NC(=O)[C@H](CC(C)C)NC(=O)[C@H](CC(C)C)NC(=O)[C@H](CCCN)NC(=O)[C@H](CCCNC(=N)N)NC(=O)[C@H](C)NC(=O)[C@H](CO)NC(=O)[C@H](CC(C)C)NC(=O)[C@H](CCC(N)=O)NC(=O)[C@H](CC)NC(=O)[C@H](CC(C)C)NC(=O)[C@@H](NC(=O)[C@H](CCCN)NC(=O)[C@H](CCCNC(=N)N)NC(=O)[C@H](Cc1ccc(O)cc1)NC(=O)[C@H](CO)NC(=O)[C@H](CC(N)=O)NC(=O)[C@@H](NC(=O)[C@H](Cc1ccccc1)NC(=O)[C@@H](NC(=O)[C@H](C)NC(=O)[C@H](CC(=O)O)NC(=O)[C@H](CC)NC(=O)[C@H](Cc1ccc(O)cc1)NC)[C@@H](C)CC)[C@@H](C)O)C(C)C)[C@@H](C)CC)C(=O)N[C@@H](CO)C(=O)N[C@@H](CCCNC(=N)N)C(=O)NCCCC(N)=O
For B5, the IC50 amounted to 1.18 nM and the “relative affinity” value was 3.67 JI-38 = 1.
Taken in the same sequence, the figures for [NMeY]ADAIFTQSYR[Orn]VL[Abu]QLSAR[Orn]LLQDI[Nle]SR-NHMe (not fully specified) [[N-Me-Tyr1, Gln8, Orn12, Abu15, Orn21, Nle27]hGHRH(1-29)NH-CH3] were 1.08 nM and 4.03 JI-38 = 1.
